According to paper PMC8056390:

How the values were obtained:
[1] = molecular target: AmtB with the C312T mutation (trimeric ammonia channel from Escherichia coli) (Escherichia coli) (UniProt P69681); test: native MS
GlnK with Y51F mutation = GlnK with Y51F mutation (UniProt P0AC55); test: native MS

Row | Substance | stoichiometry N [1] | stoichiometry N (GlnK with Y51F mutation)
1 | AmtB with the C312T mutation (trimeric ammonia channel from Escherichia coli) (from UniProt P69681 23-428) (natural protein) | 3 | 
2 | GlnK with Y51F mutation (from UniProt P0AC55 1-112) (natural protein) |  | 3
